Results taken from paper PMC4130151.

Target: Fibronectin (UniProt P02751)
Test: SPR; BIAcore T100; FN covalently immobilised on CM5 chip; EF-Tu 0-10.0 μM injected in 10 mM HEPES, 150 mM NaCl, 3 mM EDTA, 0.005% P20, pH 7.4, 30 μL/min, 25°C; KD from equilibrium

Chain of UniProt P02751 (P02751 32-2477): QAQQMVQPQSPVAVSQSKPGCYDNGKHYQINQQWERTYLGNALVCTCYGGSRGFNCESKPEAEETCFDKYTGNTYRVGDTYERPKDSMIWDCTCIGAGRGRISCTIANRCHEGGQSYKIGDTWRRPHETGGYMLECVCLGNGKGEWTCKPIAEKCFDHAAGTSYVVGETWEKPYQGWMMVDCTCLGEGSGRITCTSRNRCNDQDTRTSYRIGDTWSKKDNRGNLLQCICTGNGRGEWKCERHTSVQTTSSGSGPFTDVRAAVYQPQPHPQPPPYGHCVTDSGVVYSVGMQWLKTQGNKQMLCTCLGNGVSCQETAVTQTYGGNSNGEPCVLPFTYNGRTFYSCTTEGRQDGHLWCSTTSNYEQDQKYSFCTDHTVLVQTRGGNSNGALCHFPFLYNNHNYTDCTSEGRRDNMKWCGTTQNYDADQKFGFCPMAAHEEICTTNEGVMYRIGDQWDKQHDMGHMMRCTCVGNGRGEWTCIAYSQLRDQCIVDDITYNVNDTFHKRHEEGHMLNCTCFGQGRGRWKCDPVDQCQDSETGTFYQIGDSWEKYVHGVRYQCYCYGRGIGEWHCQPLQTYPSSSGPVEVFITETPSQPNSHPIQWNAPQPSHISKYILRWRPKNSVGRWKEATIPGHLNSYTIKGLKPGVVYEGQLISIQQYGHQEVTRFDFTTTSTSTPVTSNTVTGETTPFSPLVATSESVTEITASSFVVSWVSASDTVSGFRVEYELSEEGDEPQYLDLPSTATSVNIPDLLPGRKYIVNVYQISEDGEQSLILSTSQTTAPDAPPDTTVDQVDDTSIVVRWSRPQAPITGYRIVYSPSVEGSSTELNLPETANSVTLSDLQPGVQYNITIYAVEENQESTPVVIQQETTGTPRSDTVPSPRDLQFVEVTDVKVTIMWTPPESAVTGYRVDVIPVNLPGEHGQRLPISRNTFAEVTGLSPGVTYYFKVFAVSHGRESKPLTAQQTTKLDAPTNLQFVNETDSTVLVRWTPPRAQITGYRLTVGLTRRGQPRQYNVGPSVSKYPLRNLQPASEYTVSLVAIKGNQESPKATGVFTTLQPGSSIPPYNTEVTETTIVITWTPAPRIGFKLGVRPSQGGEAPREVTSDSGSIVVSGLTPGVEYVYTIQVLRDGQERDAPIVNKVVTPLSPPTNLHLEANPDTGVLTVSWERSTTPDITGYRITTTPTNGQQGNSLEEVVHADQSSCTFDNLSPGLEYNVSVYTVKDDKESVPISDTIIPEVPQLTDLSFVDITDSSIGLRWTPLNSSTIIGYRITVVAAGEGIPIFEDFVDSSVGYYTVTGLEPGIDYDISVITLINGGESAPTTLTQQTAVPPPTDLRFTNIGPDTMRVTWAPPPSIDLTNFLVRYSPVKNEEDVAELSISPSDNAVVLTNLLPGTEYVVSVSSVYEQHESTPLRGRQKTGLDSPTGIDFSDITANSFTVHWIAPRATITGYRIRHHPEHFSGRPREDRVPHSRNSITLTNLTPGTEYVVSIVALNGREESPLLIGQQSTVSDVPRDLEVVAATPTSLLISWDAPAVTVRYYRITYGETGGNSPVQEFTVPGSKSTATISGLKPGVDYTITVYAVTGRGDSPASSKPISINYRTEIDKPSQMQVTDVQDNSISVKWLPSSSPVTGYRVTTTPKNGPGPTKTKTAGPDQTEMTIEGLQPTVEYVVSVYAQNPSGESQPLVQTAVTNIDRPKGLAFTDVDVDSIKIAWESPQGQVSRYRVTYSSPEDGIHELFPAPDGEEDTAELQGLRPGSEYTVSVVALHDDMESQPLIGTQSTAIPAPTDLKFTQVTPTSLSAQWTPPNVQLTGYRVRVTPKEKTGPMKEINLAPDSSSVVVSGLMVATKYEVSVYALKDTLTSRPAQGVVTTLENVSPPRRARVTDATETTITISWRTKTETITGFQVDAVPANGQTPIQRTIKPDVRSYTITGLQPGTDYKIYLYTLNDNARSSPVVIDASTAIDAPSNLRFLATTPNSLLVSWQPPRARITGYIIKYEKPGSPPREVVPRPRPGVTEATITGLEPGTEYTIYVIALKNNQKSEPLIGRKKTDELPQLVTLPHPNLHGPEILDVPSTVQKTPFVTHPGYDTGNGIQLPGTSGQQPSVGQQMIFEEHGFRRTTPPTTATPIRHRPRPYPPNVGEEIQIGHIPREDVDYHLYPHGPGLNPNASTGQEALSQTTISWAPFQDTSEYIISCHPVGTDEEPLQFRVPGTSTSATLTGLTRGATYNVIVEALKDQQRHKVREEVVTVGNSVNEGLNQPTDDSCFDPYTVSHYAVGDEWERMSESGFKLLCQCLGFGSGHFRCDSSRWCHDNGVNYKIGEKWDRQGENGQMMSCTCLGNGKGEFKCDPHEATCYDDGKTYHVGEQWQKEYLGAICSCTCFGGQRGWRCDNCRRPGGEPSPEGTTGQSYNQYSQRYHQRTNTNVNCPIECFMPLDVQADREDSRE

Mycobacterium avium subsp. paratuberculosis elongation factor Tu (from UniProt Q73SD1 1-396) (natural protein)
Kd: 3.1 µM
